Substitutions are numbered along the chain they refer to.
B1: human anti-fHbp mAb 4F9 (antibody, V domains shown)
VH: QVQLVQSGGGLVKPGGSLRLSCAASGFPFSSYYMSWIRQAPGKGLEWVSDINNSGNVKEYADFVKGRLTISRDNVKNSMYLHMNSLRVEDTAVYYCARNRGRFDVWGQGTLVTVSA
VL: EIVMTQSPGTLSLSPGETATLSCRASQMISSPFLAWYQQRRGQAPRLLIYGASTRATDTPDRFRGSGSGTDFILTISRLEPEDFAVYYCQHYDDSPFTFGQGTKLEIK
notes: IgG1; source: Expi293, transient transfection, purified (protein G Sepharose)
B2: human anti-fHbp mAb 4B3 (IgG1) (antibody, V domains shown)
VH: B1 VH
VL: B1 VL with H91Y
notes: as for B1
B3: human anti-fHbp mAb 3G7 (antibody, V domains shown)
VH: B1 VH with Q1E, V5L
VL: B1 VL with M4L, H91Y
notes: as for B1
B4: human anti-fHbp mAb 5C6 (antibody, V domains shown)
VH: EVQLLESGGGLVQPGGSLRLSCAASGFTFSSYAMSWVRQTPGKGLEWVSAISGSGGSTYYADSVQGRFTISRDNSKNTLYLQINSLRAEDTAVYYCAKDPGFVLSSGWYYFDYWGQGTLVTVSS
VL: not shown
notes: as for B1

How the values were obtained:
[1] = biological target: T1, native fHbp v2.16 on live N. meningitidis strain UK104 (M08-240104) (Neisseria meningitidis, UniProt Q6VS19); assay: flow cytometry on cells; conditions: one partner purified
T1 construct: source: endogenous, on live N. meningitidis M08-240104 (UK104)

[2] = biological target: T2, factor H binding protein (fHbp) variant 1.1, recombinant (Neisseria meningitidis MC58, fHbp v1.1); assay: SPR; conditions: both partners purified
T2 construct: also called fHbp v1.1; fHbp v1; source: E. coli BL21(DE3), purified (Ni-NTA, SEC when necessary); not shown: His6, C-terminal, kept
T2 chain: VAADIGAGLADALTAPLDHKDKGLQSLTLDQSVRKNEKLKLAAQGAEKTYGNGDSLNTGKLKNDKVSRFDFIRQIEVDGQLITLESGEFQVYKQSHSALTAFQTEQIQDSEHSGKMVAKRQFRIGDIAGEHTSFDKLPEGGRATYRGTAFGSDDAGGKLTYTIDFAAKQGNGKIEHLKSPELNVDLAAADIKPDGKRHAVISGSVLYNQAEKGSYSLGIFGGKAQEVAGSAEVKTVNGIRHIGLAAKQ

[3] = biological target: T3, factor H binding protein (fHbp) variant 3.28, recombinant (Neisseria meningitidis M1239, fHbp v3.28, UniProt Q19KF7, strain); assay: SPR; conditions: both partners purified
T3 construct: also called fHbp v3.28; fHbp v3; source: E. coli BL21(DE3), purified (Ni-NTA, SEC when necessary)

[4] = biological target: T4, factor H binding protein (fHbp) variant 2.16, recombinant (Neisseria meningitidis 961-5945, UniProt Q6VS19, strain); assay: SPR; conditions: both partners purified
T4 construct: also called fHbp v2.16; fHbp v2; source: E. coli BL21(DE3), purified (Ni-NTA, SEC when necessary)

[5] = biological target: T2, factor H binding protein (fHbp) variant …; assay: BLI; Octet 384 Red, 30 C; mAb 4B3 captured on Anti-Human Fc biosensors, wild type and mutant fHbp in solution, 150 nM to 1 nM, in 1 x PBS, 1% (w/v) BSA; triplicate; conditions: both partners purified
[6] = biological target: T1, native fHbp v2.16 on live N. …; assay: flow cytometry on cells; live meningococci (MC58, UK104, UK320) in mid-log phase incubated with mAbs at 10 ug/ml; detected with FITC anti-human IgG; conditions: one partner purified

Binder | binding result [1] | Kd [2] [nM] | Kd [3] [nM] | Kd [4] [nM] | Kd [5] [nM] | binding result [6]
B1 | binds | 0.077 | 0.24 | 0.0285 | – | –
B2 | binds | 0.328 | 0.633 | 0.029 | 1.7 | –
B3 | binds | 0.344 | 0.68 | 0.0526 | – | –
B4 | – | 1.08 | 2.03 | 1.7 | – | binds
